Test results as given in publication PMC11961692.
Like-named read-outs stand apart in the source and are kept apart here.

What was measured:
[1] = target: T1, hEndoU H285A (Homo sapiens, UniProt P21128 135-410, H285A); assay: EMSA
T1 sequence: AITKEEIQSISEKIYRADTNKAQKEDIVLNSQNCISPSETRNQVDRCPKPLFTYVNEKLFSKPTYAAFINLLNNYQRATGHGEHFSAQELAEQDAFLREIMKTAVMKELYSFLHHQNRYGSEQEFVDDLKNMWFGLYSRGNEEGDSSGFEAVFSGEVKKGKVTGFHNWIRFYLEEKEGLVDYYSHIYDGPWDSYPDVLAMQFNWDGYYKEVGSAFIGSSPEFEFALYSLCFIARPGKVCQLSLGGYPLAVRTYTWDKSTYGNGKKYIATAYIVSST

[2] = target: T2, hEndoU H285A/R385A (Homo sapiens, UniProt P21128 135-410, H285A;R385A); assay: EMSA
T2 sequence: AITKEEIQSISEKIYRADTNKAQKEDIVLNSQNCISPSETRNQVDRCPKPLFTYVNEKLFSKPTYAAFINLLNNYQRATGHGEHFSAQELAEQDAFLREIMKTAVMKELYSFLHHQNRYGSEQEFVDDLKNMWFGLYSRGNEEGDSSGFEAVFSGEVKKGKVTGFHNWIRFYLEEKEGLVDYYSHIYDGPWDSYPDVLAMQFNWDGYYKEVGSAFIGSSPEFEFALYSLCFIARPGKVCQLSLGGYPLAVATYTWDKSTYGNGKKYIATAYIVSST

[3] = target: T3, hEndoU H285A/R385K (Homo sapiens, UniProt P21128 135-410, H285A;R385K); assay: EMSA
T3 sequence: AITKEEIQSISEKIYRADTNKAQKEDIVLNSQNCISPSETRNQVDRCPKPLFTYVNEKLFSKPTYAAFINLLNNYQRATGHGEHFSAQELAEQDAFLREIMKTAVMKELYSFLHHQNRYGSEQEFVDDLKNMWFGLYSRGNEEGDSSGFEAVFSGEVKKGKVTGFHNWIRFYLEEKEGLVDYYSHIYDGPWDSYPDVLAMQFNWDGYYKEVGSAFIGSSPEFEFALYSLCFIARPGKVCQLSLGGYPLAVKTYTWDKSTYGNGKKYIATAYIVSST

[4] = target: T4, hEndoU E284A (Homo sapiens, UniProt P21128 135-410, E284A); assay: EMSA
T4 sequence: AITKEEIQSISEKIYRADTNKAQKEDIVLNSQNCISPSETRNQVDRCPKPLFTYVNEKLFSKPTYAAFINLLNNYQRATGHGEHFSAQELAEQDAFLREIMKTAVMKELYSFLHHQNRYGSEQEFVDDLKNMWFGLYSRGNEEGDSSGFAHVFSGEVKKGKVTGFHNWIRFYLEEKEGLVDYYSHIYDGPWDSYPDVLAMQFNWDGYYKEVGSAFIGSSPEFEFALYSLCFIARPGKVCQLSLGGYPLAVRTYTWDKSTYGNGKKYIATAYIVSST

[5] = target: T5, hEndoU WT (Homo sapiens, UniProt P21128 135-410); assay: NMR
T5 sequence: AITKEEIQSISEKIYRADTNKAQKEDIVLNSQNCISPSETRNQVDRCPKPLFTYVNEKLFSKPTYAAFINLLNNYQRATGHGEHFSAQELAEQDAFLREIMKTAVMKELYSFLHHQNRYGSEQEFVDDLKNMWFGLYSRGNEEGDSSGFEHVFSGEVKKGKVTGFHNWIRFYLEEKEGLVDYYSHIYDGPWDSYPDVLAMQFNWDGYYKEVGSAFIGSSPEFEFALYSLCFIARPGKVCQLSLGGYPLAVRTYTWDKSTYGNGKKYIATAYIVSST

[6] = target: T5, hEndoU WT; assay: NMR; remark: listed apart in the source

B1: single-uridylate RNA (ssRNA)
RNA: CACGAGUACCAGAAAACCAAAA
B1: binds [1]; binds [2]; binds [3]. B1: binds [4].

B2: 2'-F RNA AAGUCC (XNA)
RNA: AAGUCC
modifications: 2'-F at all nucleotides
B2: binds [5].

B3: 2'-F (U)6 (XNA)
RNA: UUUUUU
modifications: 2'-F at all nucleotides
B3: binds [6].
